Reference: paper PMC12809912 (2025)

B1: mouse monoclonal antibody clone 1A8 (anti-DEFA5) [modified: Fc glycosylation, mainly the G1F glycoform (intact ESI-MS)] [mouse] / peptide No. 57 of the overlapping library, DEFA5 amino acids 61-75 (ARATCYCRTGRCATR) [human] (parent complex)
chain 1: QVQLQQSGAELVRPGASVKMSCKALGYTFFDYEMHWMKQTPVYGLEWIGAIHPGSGDTAYNQKFKGKATLTADKSSNTAYMELSSLTSEDSAVYYCTREGTVVAPFDYWGQGTTLTVSS
chain 2: DVLMTQTPLSLPVSLGDQASISCRSSQSIVHSNGNTYLEWYLQKPGQSPKLLINKVSNRFSGVPDRFSGSGSGTDFTLKISRVEAEDLGVYYCFQGSYVPYTFGGGTKLEIK
chain 3: ARATCYCRTGRCATR

Variants of: B1
Test: indirect ELISA; parent: 2.6; read off a plot

Variant	response [OD450nm]
chain 3 ARATCYARTGRCATR	~1.2
chain 3 ARATCYCRTARCATR	~1.9
chain 3 ARATCYCATGRCATR	~1.8
chain 3 ARATAYCRTGRCATR	~2
chain 3 ARATCYCRTGRAATR	~1.1
chain 3 ARGTCYCRTGRCATR	~1.8
chain 3 ARATCYCRTGRCGTR	~1.8
chain 3 AAATCYCRTGRCATR	~1.9

Results, then the variant that gave them:

response [OD450nm]	Variant
~2	chain 3 ARATCYCRTGRCAAR
~1.9	chain 3 ARATCYCRAGRCATR
~0.07	chain 3 ARATCYCRTGACATR
~1.9	chain 3 ARAACYCRTGRCATR
~1.8	chain 3 ARATCACRTGRCATR
~2.6	chain 3 ARATCYCRTGRCATA

Variants of: B1
Test: indirect ELISA; parent: 2.2; read off a plot

Variant	response [OD450nm]
chain 3 ARATCYCRTARCATR	~1.9
chain 3 ARATCYCATGRCATR	~1.8
chain 3 ARATAYCRTGRCATR	~1.9
chain 3 ARATCYCRTGRAATR	~0.95
chain 3 ARGTCYCRTGRCATR	~1.8
chain 3 ARATCYCRTGRCGTR	~1.8
chain 3 AAATCYCRTGRCATR	~1.9

The next lines start with the values.

response [OD450nm]	Variant
~1.7	chain 3 ARATCYCRTGRCAAR
~1.7	chain 3 ARATCYCRAGRCATR
~0.07	chain 3 ARATCYCRTGACATR
~1.9	chain 3 ARAACYCRTGRCATR
~1.9	chain 3 ARATCACRTGRCATR
~2.2	chain 3 ARATCYCRTGRCATA
